In PMC6309729:
Read-outs that look alike come from different tables or passages of the source.

Legend:
Experiment in all cases: other fluorescence titration
[1] = target: cpSRP54(234C)-acrylodan (Arabidopsis thaliana) (UniProt P37107)
[2] = target: cpSRP54(234C)-acrylodan (Arabidopsis thaliana) (UniProt P37107); remark: listed apart in the source
[3] = target: acrylodan-labeled cpSRP54(234C, A142W) (Arabidopsis thaliana)

- kon [1]: 157000 M⁻¹ s⁻¹
- kon [2]: 230000 M⁻¹ s⁻¹
- apparent dissociation rate constant (before subtracting GTP hydrolysis) [3]: 0.038 s⁻¹
- koff [3]: 0.03 s⁻¹
- kon [3]: 190000 M⁻¹ s⁻¹
B1: cpFtsY (chloroplast SRP receptor), wildtype (natural protein)
chain: CSAGPSGFFTRLGRLIKEKAKSDVEKVFSGFSKTRENLAVIDELLLFWNLAETDRVLDELEEALLVSDFGPKITVRIVERLREDIMSGKLKSGSEIKDALKESVLEMLAKKNSKTELQLGFRKPAVIMIVGVNGGGKTTSLGKLAHRLKNEGTKVLMAAGDTFRAAASDQLEIWAERTGCEIVVAEGDKAKAATVLSKAVKRGKEEGYDVVLCDTSGRLHTNYSLMEELIACKKAVGKIVSGAPNEILLVLDGNTGLNMLPQAREFNEVVGITGLILTKLDGSARGGCVVSVVEELGIPVKFIGVGEAVEDLQPFDPEAFVNAIFS
